The record followed here is PMC8191757, “m6A RNA methylation of major satellite repeat transcripts facilitates chromatin association and RNA:DNA hybrid formation in mouse heterochromatin”.

The target of this data set is T1, NLS-HBD(H1)-eGFP (mouse, UniProt O70338 27-76).
T1 chain: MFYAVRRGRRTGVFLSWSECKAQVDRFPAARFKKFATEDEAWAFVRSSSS
Put plainly: EMSA; comparable to unmodified; EMSA: 20 nM hybrid, 125 nM-0.5 uM protein, 20 mM Tris-HCl pH 8.0, 150 mM NaCl, 5 mM MgCl2, 12.5% glycerol, 0.05% Triton X-100, 1 mM DTT, 1 h at 4 C. Particulars: protein: recombinant, tags: N-terminal NLS PKKKRKV, 6xHis-MBP cleaved by AcTEV, label: 5'-Cy5 on RNA, blunt.

B1: MSR SR2 RNA:DNA hybrid, m6A (DNA:RNA)
RNA: UUUUCCACCUUUUUCAGUUUUCCUCGCCAUAUUUC
DNA: GAAATATGGCGAGGAAAACTGAAAAAGGTGGAAAA
modifications: m6A at RNA positions 7, 16, 29, 31
Consider B1, for which the binding result is reported as “binds”.
